What all share (assay): SEC; gel filtration chromatography of the refolded precursor proteins after heparin affinity chromatography; peak D, dimer
(In general: Size exclusion chromatography separates by hydrodynamic size, large species first.)

Assay [1] addresses C313A myostatin precursor protein (UniProt O14793).
The target of assay [2] is C313Y myostatin precursor protein (UniProt O14793).
The target in assay [3] is C374A myostatin precursor protein (UniProt O14793).

Substance “C313A myostatin precursor protein (from UniProt O14793 24-375) (natural protein)” showed a stoichiometry N in assay [1] of 2.

With “C313Y myostatin precursor protein (from UniProt O14793 24-375) (natural protein)”, in assay [2], the stoichiometry N stood at 2.

As to “C374A myostatin precursor protein (from UniProt O14793 24-375) (natural protein)”, in assay [3], the stoichiometry N amounted to 2.

Usually stoichiometry N stands for a count of units in the complex or per binding partner.
